Literature values, collected in patent publication US20230042670A1, “Hypoparathyroidism Treatment” (Ascendis Pharma Bone Diseases A/S, priority 2020, published 2023).

Columns and labels:
[1] = in vivo
[2] = test system: patients with hypoparathyroidism

PTH(1-84): short acting PTH molecule, approved drug for hypoparathyroidism; PTH 1-84, SEQ ID NO: 1
half-life [1]: ~3 h | clinical episodes of hypercalcemia ([2]; on treatment versus placebo, 24 weeks): numerical increase | clinical episodes of hypocalcemia ([2]; versus placebo, 24 weeks): no significant difference | urinary calcium excretion ([2]; versus placebo, 24 weeks): no significant difference | patients achieving the primary endpoint (50% or greater reduction in daily oral calcium and active vitamin D while maintaining serum calcium) ([2]; week 24, 50 μg per day titrated up to 100 μg): 53%
